Assay results as given in US20250361274A1, “PEPTIDE AND PEPTIDE-CONTAINING AGENT” (PEPTIDREAM INC., priority 2022, published 2025).
Numbered stars: 1 amine (or outer) side, 2 acyl side, 3 side chain; on linkers, the order of the positions; unused ones are H or OH. Bridge positions count the residues as written; N and C are the ends. Square brackets hold non-standard residues; d marks the D form. Ends that are not written are not given here. KCOpipzaa = N6-(4-(carboxymethyl)piperazine-1-carbonyl)-L-lysine, O=C(NCCCC[C@H](N[*:1])C(=O)[*:2])N1CCN(CC(=O)[*:3])CC1; 3Pal(6-Ph) = N[C@@H](Cc1ccc(-c2ccccc2)nc1)C(=O)O; Phe(4-COOH) = N[C@@H](Cc1ccc(C(=O)O)cc1)C(=O)O; Bip = N[C@@H](Cc1ccc(-c2ccccc2)cc1)C(=O)O; 3Pal(6-NH2) = Nc1ccc(C[C@H](N)C(=O)O)cn1; Phe(4-F) = N[C@@H](Cc1ccc(F)cc1)C(=O)O; Ala(4-THP) = N[C@@H](CC1CCOCC1)C(=O)O; hTyr = N[C@@H](CCc1ccc(O)cc1)C(=O)O; 4Pal = N[C@@H](Cc1ccncc1)C(=O)O

Legend:
BMP4 = molecular target: T1, BMP4 (Homo sapiens, UniProt P12644); test: BMP4 signal transduction inhibitory activity: SMAD1 phosphorylation by BMP4 stimulus, AlphaLISA SureFire, A549 cells; type: cell-based; settings: for aLISA BMP4: inhibition of SMAD1 phosphorylation by BMP4 stimulus, A549 cells, peptides of Synthesis 1, classes D-F, ND; for aLIZA BMP4 (0.2 nM) % Inh: SMAD1 phosphorylation by BMP4 stimulus, peptide conc. in assay 0.02, 0.2, 2 nM, class symbols
T1 sequence (P12644 293-408): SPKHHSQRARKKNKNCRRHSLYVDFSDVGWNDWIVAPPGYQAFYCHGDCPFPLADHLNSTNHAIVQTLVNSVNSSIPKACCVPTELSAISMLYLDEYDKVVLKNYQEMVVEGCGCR

BMP7 = molecular target: T2, BMP7 (Homo sapiens, UniProt P18075); test: BMP7 signal transduction inhibitory activity: SMAD1 phosphorylation by BMP7 stimulus, A549 cells; type: cell-based; settings: for aLISA BMP7: inhibition of SMAD1 phosphorylation by BMP7 stimulus, A549 cells, peptides of Synthesis 1, classes E, F, ND; for aLIZA BMP7 (10 nM) % Inh: SMAD1 phosphorylation by BMP7 stimulus, peptide conc. in assay 10, 100, 1000 nM, class symbols
T2 sequence (P18075 293-431): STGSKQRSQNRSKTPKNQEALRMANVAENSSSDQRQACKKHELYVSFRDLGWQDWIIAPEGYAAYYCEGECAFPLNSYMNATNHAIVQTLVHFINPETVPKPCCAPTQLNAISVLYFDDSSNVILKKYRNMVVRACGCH
Outline: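 Inhibition was measured as loss of BMP7-induced SMAD1 phosphorylation, using 10 nM BMP7 on A549 cells. Most peptides were given as three-concentration sets, such as 1/10/100, 10/100/1,000, 100/300/1,000 or 10/30/90 nM. Others were given as eight 1/3-ratio dilutions from 100 or 1,000 nM, alongside Noggin as control.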

Row | Substance | aLISA BMP4 (BMP4) | aLISA BMP7 (BMP7) | aLIZA BMP4 (0.2 nM) % Inh (BMP4) | aLIZA BMP7 (10 nM) % Inh (BMP7)
1 | 146 ({CH2CO}-ERVYVDR[Bip]PY[Ala(4-THP)][Bip]Y[Phe(4-COOH)][Phe(4-COOH)]SCG-NH2; thioether N-17; not fully specified) [compound 146] | D (showed 50% or more of inhibitory activity in 0.2 nM-addition zone) | E (showed 50% or more of inhibitory activity in a zone to which the peptide was added in an amount of 10 nM) |  | 
2 | 150 ({CH2CO}-ERVYVDR[Bip]PYV[Bip]Y[Phe(4-COOH)][3Pal(6-NH2)]SCG-NH2; thioether N-17; not fully specified) [compound 150] | E (showed less than 50% of inhibitory activity in 0.2 nM-addition zone and showed 50% or more of inhibitory activity in 2 nM-addition zone) | E (showed 50% or more of inhibitory activity in a zone to which the peptide was added in an amount of 10 nM) |  | 
3 | 243 (ERVYVDR[3Pal(6-Ph)]SYV[Bip]Y[Phe(4-COOH)][Phe(4-COOH)]SCG-NH2) [compound 243] |  |  | C (showed less than 30% of inhibitory activity in 0.2 nM-addition zone and showed 30% or more of inhibitory activity in 2 nM-addition zone) | E (showed less than 30% of inhibitory activity in 100 nM-addition zone and showed 30% or more of inhibitory activity in 1,000 nM-addition zone)
4 | 244 (ARVYVDR[3Pal(6-Ph)]SYV[Bip]Y[Phe(4-COOH)][Phe(4-COOH)]SCG-NH2; not fully specified) [compound 244] |  |  | C (showed less than 30% of inhibitory activity in 0.2 nM-addition zone and showed 30% or more of inhibitory activity in 2 nM-addition zone) | ND (the inhibitory activity was less than 30% at the maximum concentration evaluated)
5 | 245 (LRVYVDR[3Pal(6-Ph)]SYV[Bip]Y[Phe(4-COOH)][Phe(4-COOH)]SCG) [compound 245] |  |  | C (showed less than 30% of inhibitory activity in 0.2 nM-addition zone and showed 30% or more of inhibitory activity in 2 nM-addition zone) | ND (the inhibitory activity was less than 30% at the maximum concentration evaluated)
6 | 246 (ERV[4Pal]VDR[3Pal(6-Ph)]SYV[Bip]Y[Phe(4-COOH)][Phe(4-COOH)]SCG-NH2; not fully specified) [compound 246] |  |  | C (showed less than 30% of inhibitory activity in 0.2 nM-addition zone and showed 30% or more of inhibitory activity in 2 nM-addition zone) | E (showed less than 30% of inhibitory activity in 100 nM-addition zone and showed 30% or more of inhibitory activity in 1,000 nM-addition zone)
7 | 247 (ERV[Phe(4-F)]VDR[3Pal(6-Ph)]SYV[Bip]Y[Phe(4-COOH)][Phe(4-COOH)]SCG-NH2) [compound 247] |  |  | C (showed less than 30% of inhibitory activity in 0.2 nM-addition zone and showed 30% or more of inhibitory activity in 2 nM-addition zone) | E (showed less than 30% of inhibitory activity in 100 nM-addition zone and showed 30% or more of inhibitory activity in 1,000 nM-addition zone)
8 | 248 (E[KCOpipzaa]VYVDR[3Pal(6-Ph)]SYV[Bip]Y[Phe(4-COOH)][Phe(4-COOH)]SCG-NH2) [compound 248] |  |  | C (showed less than 30% of inhibitory activity in 0.2 nM-addition zone and showed 30% or more of inhibitory activity in 2 nM-addition zone) | ND (the inhibitory activity was less than 30% at the maximum concentration evaluated)
9 | 249 (ERVHVDR[3Pal(6-Ph)]SYV[Bip]Y[Phe(4-COOH)][Phe(4-COOH)]SCG-NH2; not fully specified) [compound 249] |  |  | C (showed less than 30% of inhibitory activity in 0.2 nM-addition zone and showed 30% or more of inhibitory activity in 2 nM-addition zone) | E (showed less than 30% of inhibitory activity in 100 nM-addition zone and showed 30% or more of inhibitory activity in 1,000 nM-addition zone)
10 | 250 (ERVYVDR[3Pal(6-Ph)]HYV[Bip]Y[Phe(4-COOH)][Phe(4-COOH)]SCG-NH2; not fully specified) [compound 250] |  |  | C (showed less than 30% of inhibitory activity in 0.2 nM-addition zone and showed 30% or more of inhibitory activity in 2 nM-addition zone) | E (showed less than 30% of inhibitory activity in 100 nM-addition zone and showed 30% or more of inhibitory activity in 1,000 nM-addition zone)
11 | 251 (ERVYVDR[3Pal(6-Ph)]S[hTyr]V[Bip]Y[Phe(4-COOH)][Phe(4-COOH)]SCG-NH2) [compound 251] |  |  | C (showed less than 30% of inhibitory activity in 0.2 nM-addition zone and showed 30% or more of inhibitory activity in 2 nM-addition zone) | ND (the inhibitory activity was less than 30% at the maximum concentration evaluated)
12 | 252 (LRVYVDR[3Pal(6-Ph)]SYV[Bip][4Pal][Phe(4-COOH)][Phe(4-COOH)]SCG-NH2; not fully specified) [compound 252] |  |  | C (showed less than 30% of inhibitory activity in 0.2 nM-addition zone and showed 30% or more of inhibitory activity in 2 nM-addition zone) | ND (the inhibitory activity was less than 30% at the maximum concentration evaluated)
13 | 253 (ERVYVSR[3Pal(6-Ph)]SYV[Bip][4Pal][Phe(4-COOH)][Phe(4-COOH)]SCG-NH2; not fully specified) [compound 253] |  |  | C (showed less than 30% of inhibitory activity in 0.2 nM-addition zone and showed 30% or more of inhibitory activity in 2 nM-addition zone) | ND (the inhibitory activity was less than 30% at the maximum concentration evaluated)
14 | 254 (ERVYVSR[3Pal(6-Ph)]S[hTyr]V[Bip]Y[Phe(4-COOH)][Phe(4-COOH)]SCG-NH2; not fully specified) [compound 254] |  |  | C (showed less than 30% of inhibitory activity in 0.2 nM-addition zone and showed 30% or more of inhibitory activity in 2 nM-addition zone) | ND (the inhibitory activity was less than 30% at the maximum concentration evaluated)
15 | 256 (ERV[Phe(4-F)]VSR[3Pal(6-Ph)]SYV[Bip][4Pal][Phe(4-COOH)][Phe(4-COOH)]SCG-NH2; not fully specified) [compound 256] |  |  | C (showed less than 30% of inhibitory activity in 0.2 nM-addition zone and showed 30% or more of inhibitory activity in 2 nM-addition zone) | ND (the inhibitory activity was less than 30% at the maximum concentration evaluated)
16 | 257 (TRVYVDR[3Pal(6-Ph)]SYV[Bip]Y[Phe(4-COOH)][Phe(4-COOH)]SCG-NH2; not fully specified) [compound 257] |  |  | C (showed less than 30% of inhibitory activity in 0.2 nM-addition zone and showed 30% or more of inhibitory activity in 2 nM-addition zone) | E (showed less than 30% of inhibitory activity in 100 nM-addition zone and showed 30% or more of inhibitory activity in 1,000 nM-addition zone)
17 | 263 (ERVYV[KCOpipzaa]R[3Pal(6-Ph)]SYV[Bip]Y[Phe(4-COOH)][Phe(4-COOH)]SCG-NH2; not fully specified) [compound 263] |  |  | C (showed less than 30% of inhibitory activity in 0.2 nM-addition zone and showed 30% or more of inhibitory activity in 2 nM-addition zone) | E (showed less than 30% of inhibitory activity in 100 nM-addition zone and showed 30% or more of inhibitory activity in 1,000 nM-addition zone)
